Measured values taken from patent US20110039770A1, “INHIBITORS OF PROTEIN KINASE C ISOFORMS AND USES THEREOF” (PHARMAGAP INC., priority 2005, published 2011).
Where a SMILES comes first, the peptide text is derived from it. Where no end group is shown, it is not given here. The star is where a group is joined. PNA(A) = NCCN(CC(=O)*)C(=O)Cn1cnc2c(N)ncnc21

Assays:
PKC enzymes (cPKCs) = assay: Phosphorylation of MARCKS peptide by endogenous PKCs in IMR-32 cells; type: cell-based, human
PKC beta 1 = PKC beta 1 (Homo sapiens, UniProt P05771); assay: Kinase-Glo Luminescent Kinase Assay; type: biochemical; parameters: purchased; details: for inhibition of PKC beta 1 activity (in words): Kinase-Glo
Protocol: (§1) Compounds TIM 10, 11, 13, 14, 15, and 18-22 (see Table 28) were tested for their ability to inhibit the activity of PKC-alpha, beta 1, delta and epsilon isoforms the Kinase-Glo™ Luminescent Kinase Assay (Promega, Cat # V6712/3/4) following the manufacturer's instructions.

PKC epsilon = target: T1, PKC epsilon (Homo sapiens, UniProt Q02156); assay: Kinase-Glo Luminescent Kinase Assay; type: biochemical; parameters: purchased
T1 sequence (Q02156 1-737): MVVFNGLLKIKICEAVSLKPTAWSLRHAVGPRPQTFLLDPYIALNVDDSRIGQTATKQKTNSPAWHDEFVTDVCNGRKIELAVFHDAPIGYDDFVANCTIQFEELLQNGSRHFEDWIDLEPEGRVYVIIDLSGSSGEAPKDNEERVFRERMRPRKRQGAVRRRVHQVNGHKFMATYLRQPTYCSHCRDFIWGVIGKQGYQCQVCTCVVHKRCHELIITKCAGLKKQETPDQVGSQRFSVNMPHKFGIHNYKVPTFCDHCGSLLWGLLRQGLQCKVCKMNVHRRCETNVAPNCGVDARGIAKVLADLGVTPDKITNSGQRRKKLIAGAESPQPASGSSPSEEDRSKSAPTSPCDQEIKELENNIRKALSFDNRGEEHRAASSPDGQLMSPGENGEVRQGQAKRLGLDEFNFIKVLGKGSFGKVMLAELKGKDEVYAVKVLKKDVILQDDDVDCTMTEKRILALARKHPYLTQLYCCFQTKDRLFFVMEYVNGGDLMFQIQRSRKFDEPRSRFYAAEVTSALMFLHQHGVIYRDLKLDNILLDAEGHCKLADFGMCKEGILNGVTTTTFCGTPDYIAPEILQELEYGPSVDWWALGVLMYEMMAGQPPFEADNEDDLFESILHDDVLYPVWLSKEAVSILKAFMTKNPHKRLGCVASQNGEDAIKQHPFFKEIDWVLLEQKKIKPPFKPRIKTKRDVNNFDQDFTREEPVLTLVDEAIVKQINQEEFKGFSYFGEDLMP
Protocol: as §1

[1] = test system: peripheral blood lymphocytes; assay: Peripheral blood lymphocyte survival and blastogenic response to mitogens; type: cell-based; details: primary lymphocytes of pigs, mice and human
PKC alpha = PKC alpha (Homo sapiens, UniProt P17252); assay: Kinase-Glo Luminescent Kinase Assay; type: biochemical; details: for inhibition of PKC alpha activity (in words): Kinase-Glo
Protocol: as §1

PKC delta = PKC delta (Homo sapiens, UniProt Q05655); assay: Kinase-Glo Luminescent Kinase Assay; type: biochemical; details: for inhibition of PKC delta activity (in words): Kinase-Glo
Protocol: as §1

[2] = test system: LS180 human colon cancer cells; assay: Survival of doxorubicin-resistant colon cancer cells, trypan blue exclusion; type: cell-based; details: 50 ng/ml; 72 hrs
Protocol: Highly tumourigenic human colon cancer cells (LS180; ATCC # CL-187) which constitutively express multi-drug resistance (MDR) were used for this experiment. LS180 cells were seeded in 6 well plates at a density of 2×10^5. After a 24 hr recovery cells were treated with 50 ng/ml of doxorubicin, 2.5 μM compound TIM 10, or a combination of doxorubicin and compound TIM 10 (2.5 μM and 5 μM) for 72 hrs. Note that compound TIM 10 was added to the cell culture medium; no protocol was used to force the compound into the cell. The cells were then trypsinized and counted using the standard trypan blue dye exclusion assay.

PKC-α [3] = target: T2, PKC-α (Homo sapiens, UniProt P17252); assay: Competition of PRE with PKC-α antibody binding, Protocol B (peptide added to cell extract before electrophoresis), IMR-32; parameters: endogenous PKC-α in (A) untreated human neuroblastoma (IMR-32) cells; endogenous in cells; host or cells: IMR-32 human neuroblastoma cells; details: 100 μg
Protocol: Peptides PRE 3 and PRE 4 (see Table 4) were tested for their ability to interfere with the binding of isoform-specific polyclonal antibodies (Santa Cruz Biotechnology, Inc.) to PKC-α, PKC-βI or PKC-βII using the general protocol described in Example 3.

PKC-α [4] = target: T2, PKC-α; assay: Competition of PRE with PKC-α antibody binding on Western blot, Protocol A, IMR-32 lysate; parameters: endogenous PKC-α in (A) untreated human neuroblastoma (IMR-32) cells; endogenous in cells; host or cells: IMR-32 human neuroblastoma cells; details: IMR-32 cells
Protocol: The ability of the PRE 1, 2 and 3 (see Table 3 above) to interfere with the binding of a PKC-α-specific polyclonal antibody to PKC-α was determined using the following protocol.
(§2) Cell lysates from either IMR-32 (human neuroblastoma) cells or C6Cx43 cells (rat glioma transfected cells overexpressing connexin 43) were obtained using standard protocols and the proteins of the lysate were separated by SDS PAGE electrophoresis and electrotransferred onto a nitrocellulose membrane. The membrane was incubated for 30 minutes in blocking buffer (TBST) containing the test peptide at either 5× or 20× the concentrations of the primary antibody. A primary polyclonal antibody specific for PKC-α (Santa Cruz Biotechnology, Inc., CA) was then added (15 μg/ml) and the membrane incubated for a further 45 minutes. Finally, the primary antibody was detected with a secondary antibody conjugated to alkaline phosphatase using standard procedures. The intensity of the band corresponding to PKC-α was assessed by scanning and densitometry using the Gel-Pro software (Media Cybernetics) to obtain relative band intensities (average of 3 replicas). Control assays were conducted as described above except that blocking buffer without peptide was used.
The results are expressed as relative band intensity and as a percentage of the intensity of the corresponding band in the control assay (“Relative intensity (%)”). “% inhibition” relates to the percentage of the PKC-α band that is inaccessible to the antibody.

PKC-β [5] = target: T3, PKC-β (Homo sapiens, UniProt P05771); assay: Competition of PRE with PKC-β antibody binding, Protocol B, IMR-32; details: 100 μg
T3 construct: PRE 2 and PRE 3 in IMR-32 Neuroblastoma Cells: Protocol A; endogenous in cells; host or cells: IMR-32 human neuroblastoma cells
Protocol: The ability of the peptides PRE 2 and PRE 3 (see Table 4) to interfere with the binding of a PKC-α-specific polyclonal antibody (Santa Cruz Biotechnology, Inc.) to PKC-α was determined using a modified version of the protocol outlined above in which the test peptide was added directly to the cell extract prior to electrophoresis at a concentration of either 5× or 15× the concentration of the protein applied to each well of the gel for the Western blots (20 μg).
(§3) Peptides PRE 2 and PRE 3 (see Table 4) were tested for their ability to interfere with the binding of a PKC-β-specific polyclonal antibody (Santa Cruz Biotechnology, Inc.) to PKC-β using the general protocol described in Example 3.

PKC-β [6] = target: T3, PKC-β; assay: Competition of PRE with PKC-β antibody binding, Protocol A, IMR-32 lysate
Protocol: as §2
as §3, with “Peptides PRE 1,” for “Peptides”, “1. […] It is worth noting in this regard that PKC-α and PKC-β belong to the same sub-group of PKCs (cPKCs).” for “3.”

T3 sequence (P05771 whole entry): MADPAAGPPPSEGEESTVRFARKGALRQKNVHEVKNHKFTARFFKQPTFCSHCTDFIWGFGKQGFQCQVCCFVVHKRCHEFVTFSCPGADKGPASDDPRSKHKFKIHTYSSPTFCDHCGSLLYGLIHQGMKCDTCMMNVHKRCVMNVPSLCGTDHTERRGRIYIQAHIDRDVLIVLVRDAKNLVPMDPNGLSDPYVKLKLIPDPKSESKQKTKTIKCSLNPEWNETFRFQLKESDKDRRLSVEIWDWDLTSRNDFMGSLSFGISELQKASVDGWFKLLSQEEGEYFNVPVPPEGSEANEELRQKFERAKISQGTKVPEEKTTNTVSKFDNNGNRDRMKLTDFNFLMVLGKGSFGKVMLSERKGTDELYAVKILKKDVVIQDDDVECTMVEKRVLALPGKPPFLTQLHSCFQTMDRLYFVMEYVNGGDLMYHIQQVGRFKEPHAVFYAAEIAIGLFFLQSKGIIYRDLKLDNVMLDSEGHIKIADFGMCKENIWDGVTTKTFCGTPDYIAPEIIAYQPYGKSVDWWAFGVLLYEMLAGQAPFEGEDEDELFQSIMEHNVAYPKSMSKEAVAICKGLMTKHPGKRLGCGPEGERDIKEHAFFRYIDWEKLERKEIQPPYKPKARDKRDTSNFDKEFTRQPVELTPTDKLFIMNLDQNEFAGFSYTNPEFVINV
PKC beta 1, sequence (P05771 whole entry, canonical isoform): as the sequence (P05771 whole entry) above
PKC delta, sequence (Q05655 whole entry): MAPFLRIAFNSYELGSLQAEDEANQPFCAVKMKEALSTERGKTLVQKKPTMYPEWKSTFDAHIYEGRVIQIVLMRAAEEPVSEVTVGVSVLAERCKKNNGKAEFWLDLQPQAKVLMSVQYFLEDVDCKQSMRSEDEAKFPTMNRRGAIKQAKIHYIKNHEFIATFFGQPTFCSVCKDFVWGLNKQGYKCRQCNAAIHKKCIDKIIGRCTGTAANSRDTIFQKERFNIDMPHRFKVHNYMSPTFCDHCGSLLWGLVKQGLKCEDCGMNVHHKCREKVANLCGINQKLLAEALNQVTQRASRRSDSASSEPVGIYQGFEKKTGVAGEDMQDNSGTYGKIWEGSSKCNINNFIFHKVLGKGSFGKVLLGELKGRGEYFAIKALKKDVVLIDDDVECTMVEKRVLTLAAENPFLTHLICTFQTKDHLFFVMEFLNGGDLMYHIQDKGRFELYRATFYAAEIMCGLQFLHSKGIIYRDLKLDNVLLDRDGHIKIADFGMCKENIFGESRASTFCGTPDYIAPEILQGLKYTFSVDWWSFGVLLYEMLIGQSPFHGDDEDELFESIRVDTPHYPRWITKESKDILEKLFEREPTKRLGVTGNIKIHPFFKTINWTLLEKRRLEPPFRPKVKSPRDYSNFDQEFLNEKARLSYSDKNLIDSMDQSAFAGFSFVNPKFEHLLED

For `Cn1c2ccccc2c2c3c(c4c5ccccc5n(CCC#N)c4c21)CNC3=O` [Go6976], the “inactivation of cPKCs (MARCKS phosphorylation)” value (PKC enzymes (cPKCs); 30 min) was “still very low” and the “inactivation of cPKCs (phospho-MARCKS levels)” value (PKC enzymes (cPKCs); 24 h) was “obvious”.

`CC[C@H](C)[C@H](NC(=O)[C@H](CO)NC(=O)[C@@H](NC(=O)CNC(=O)[C@@H](NC(=O)[C@H](CC(C)C)NC(=O)[C@H](CC(N)=O)NC(=O)[C@H](CCC(N)=O)NC(=O)[C@H](C)NC(=O)[C@H](CC(=O)OC)NC(=O)[C@H](CCCCN)NC(=O)CNC(=O)CNC(=O)CNC(=O)CNC(=O)CNC(=O)CNC(=O)CNC(=O)[C@H](CC(C)C)NC(=O)[C@H](CCCNC(=N)N)NC(=O)[C@H](Cc1ccccc1)NC(=O)[C@H](CCCCNC(=O)CN(CCN)C(=O)Cn1cnc2c(N)ncnc21)NC(=O)[C@H](CCCNC(=N)N)NC(=O)[C@H](CCCNC(=N)N)NC(=O)[C@H](Cc1ccccc1)NC(C)=O)[C@@H](C)CC)[C@@H](C)CC)C(N)=O` [TIM 15] (Ac-FRRK(PNA(A))FRLGGGGGGGKD(OMe)AQNLIGISI-NH2) was tested, and the inhibition at 15 µM (PKC beta 1; 15.0 μM, read-out: % Inhibition PKC-βI) was 18.8%, the inhibition at 30 µM (PKC beta 1; 30.0 μM, read-out: % Inhibition PKC-βI) was -69% and the inhibition at 15 µM (PKC epsilon; 15.0 μM, read-out: % Inhibition PKC-ε) was 9%. The inhibition at 30 µM (PKC epsilon; 30.0 μM, read-out: % Inhibition PKC-ε) was 81%, the “apoptosis of peripheral blood lymphocytes” value [1] was “do not induce apoptosis” and the “blastogenic response to mitogens” value [1] was “do not drastically limit the blastogenic response”. It also gave an inhibition at 15 µM (PKC alpha; 15.0 μM, read-out: % Inhibition PKC-α) of 32.1%, an inhibition at 30 µM (PKC alpha; 30.0 μM, read-out: % Inhibition PKC-α) of 21.8% and an inhibition at 15 µM (PKC delta; 15.0 μM, read-out: % Inhibition PKC-δ) of 18.6%. The inhibition at 30 µM (PKC delta; 30.0 μM, read-out: % Inhibition PKC-δ) was 21.8%.

In the case of `COc1cccc2c1C(=O)c1c(O)c3c(c(O)c1C2=O)C[C@@](O)(C(=O)CO)C[C@@H]3O[C@H]1C[C@H](N)[C@H](O)[C@H](C)O1` [doxorubicin], the cell survival [2] is reported as “a large proportion of the cells survived”.

With “Ac—FRRCFRL—(G)7—AKGIQEVKGGDAQNLIGISI—NH2 (Ac-FRRCFRLGGGGGGGAKGIQEVKGGDAQNLIGISI-NH2) [TIM 18, PRE 3 and PKI 4]” the “inhibition of PKC beta 1 activity (in words)” value (PKC beta 1) was “inhibits the activity”, the “inhibition of PKC epsilon activity (in words)” value (PKC epsilon; Kinase-Glo) was “no effect” and the “% Inhibition PKC-α” value (PKC alpha; 2.5 μM) was 16.4%. The “inhibition of PKC alpha activity (in words)” value (PKC alpha) was “very potent inhibitor”, the “% Inhibition PKC-δ” value (PKC delta; 5.0 μM) was 56.3% and the “% Inhibition PKC-δ” value (PKC delta; 30.0 μM) was 85.1%. For the same molecule, the “inhibition of PKC delta activity (in words)” value (PKC delta) was “inhibits the activity”.

In the case of “Ac—FRRCFRL—(G)7—KDAQNLIGISI—NH2 (Ac-FRRCFRLGGGGGGGKDAQNLIGISI-NH2) [TIM 21, PRE 4 and PKI 4]”, the “% Inhibition PKC-βI” value (PKC beta 1; 5.0 μM) is reported as 11%, the “% Inhibition PKC-βI” value (PKC beta 1; 30.0 μM) is reported as 13.9% and the “inhibition of PKC beta 1 activity (in words)” value (PKC beta 1) is reported as “not active”. The “% Inhibition PKC-ε” value (PKC epsilon; 5.0 μM) was −5%, the “% Inhibition PKC-ε” value (PKC epsilon; 30.0 μM) was 52% and the “% Inhibition PKC-α” value (PKC alpha; 15.0 μM) was 64.3%. The “% Inhibition PKC-α” value (PKC alpha; 30.0 μM) was 95.2%, the “inhibition of PKC alpha activity (in words)” value (PKC alpha) was “at a lesser extent” and the “% Inhibition PKC-δ” value (PKC delta; 2.5 μM) was 26.2%. For the same molecule, the “inhibition of PKC delta activity (in words)” value (PKC delta) was “exceptionally good inhibitor”.

With KDAQNLIGISL-NH2 [PRE 2] the “Inhibition (%)” value (PKC-α [3]; Example 3) was 99.9%, the “Relative Intensity (%)” value (PKC-α [3]; Example 3) was 0.135% and the “Band Intensity” value (PKC-α [3]; Example 3 (control 0.759)) was 0.0103. The “Band Intensity” value (PKC-α [4]; 75 μg) was 0.917, the “Inhibition (%)” value (PKC-α [4]; 75 μg) was 56.1% and the “Relative Intensity (%)” value (PKC-α [4]; 75 μg) was 43.9%. The “Band Intensity” value (PKC-α [4]; 300 μg) was 0.192, the “Inhibition (%)” value (PKC-α [4]; 300 μg) was 90.9% and the “Relative Intensity (%)” value (PKC-α [4]; 300 μg) was 9.1%. The “Band Intensity” value (PKC-β [5]) was 0.0322, the “Inhibition (%)” value (PKC-β [5]) was 54.7% and the “Relative Intensity (%)” value (PKC-β [5]) was 45.3%. For the same molecule, the “Band Intensity” value (PKC-β [6]; 75 μg) was 0.800, the “Inhibition (%)” value (PKC-β [6]; 75 μg) was 31.0% and the “Relative Intensity (%)” value (PKC-β [6]; 75 μg) was 69.0%. The “Band Intensity” value (PKC-β [6]; 300 μg) was 0.403, the “Inhibition (%)” value (PKC-β [6]; 300 μg) was 65.3% and the “Relative Intensity (%)” value (PKC-β [6]; 300 μg) was 34.7%.
